In patent US20190381086A1, “INHIBITION OF NEDDYLATION USING GLYCYL-tRNA SYNTHETASE INHIBITORS” (The Scripps Research Institute, priority 2015, published 2019):

Tests used:
[1] = biological target: N-terminal GST-tagged GlyRS (human) (UniProt P41250); assay: biolayer interferometry (Octet), GlyRS immobilized, 30°C
[2] = biological target: N-terminal GST-tagged GlyRS (human) (UniProt P41250); assay: biolayer interferometry (Octet), GlyRS immobilized

Sequence of N-terminal GST-tagged GlyRS (human) (P41250 55-739): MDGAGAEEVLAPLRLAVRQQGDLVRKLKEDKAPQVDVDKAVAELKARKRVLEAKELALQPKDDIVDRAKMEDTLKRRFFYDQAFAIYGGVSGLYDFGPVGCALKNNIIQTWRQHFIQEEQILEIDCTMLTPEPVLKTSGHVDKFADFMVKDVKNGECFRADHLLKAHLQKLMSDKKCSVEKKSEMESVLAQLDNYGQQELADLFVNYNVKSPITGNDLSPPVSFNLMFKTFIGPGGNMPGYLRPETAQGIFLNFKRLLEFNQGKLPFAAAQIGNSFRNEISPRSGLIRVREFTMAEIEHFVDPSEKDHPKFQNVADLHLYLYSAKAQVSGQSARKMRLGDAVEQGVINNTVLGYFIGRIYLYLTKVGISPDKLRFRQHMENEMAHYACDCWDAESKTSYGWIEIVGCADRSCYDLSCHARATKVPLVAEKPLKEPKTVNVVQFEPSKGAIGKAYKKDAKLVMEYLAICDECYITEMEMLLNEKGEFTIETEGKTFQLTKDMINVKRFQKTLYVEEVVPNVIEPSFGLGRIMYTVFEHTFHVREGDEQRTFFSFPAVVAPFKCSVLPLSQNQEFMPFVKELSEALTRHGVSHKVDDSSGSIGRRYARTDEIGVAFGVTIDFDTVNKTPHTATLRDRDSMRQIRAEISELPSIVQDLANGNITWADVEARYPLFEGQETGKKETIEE

Ubc12^N8: NEDD8-conjugated Ubc12 (C111S, stable ester linkage to His-SUMO-tagged NEDD8) (from UniProt P61081 1-183; Q15843 1-76)
Kd [1]: 4.09 nM | fold stronger than the Kd for NEDD8 alone [2]: 30 fold | fold stronger than the Kd for Ubc12 alone [2]: 100 fold
